How the values were obtained:
Format in all cases: cell-based
P. aeruginosa 13-18499 = assay: agar disc-diffusion assay; conditions: strain 13-18499; 0.3, 3 and 30 μg of protein spotted on discs on CAA agar lawn, overnight
Experimental: (§1) Overnight P. aeruginosa cultures grown in CAA medium were equalized till OD595=1.0 in CAA and diluted 100×. Sterile cotton swab was briefly submerged in diluted microbial suspension, removing the excess of liquid by pressing it against the container wall. The swab was used for evenly streaking bacteria on plates containing growth medium with CAA solid agar (1.5%). 6 mm diameter sterile Whatman discs were placed on soft-agar and 0.3-30 μg of chimeric pyocins were spotted to paper disks. The plates were incubated overnight at 37° C. and bacteriocin inhibition zones were observed.
(§2) Next, all 25 P. aeruginosa strains were subjected to agar disc-diffusion assay by spotting different amounts of purified pyocin S5 (0.3 μg, 3 μg and 30 μg) on bacteria lawns. Six P. aeruginosa strains were resistant to pyocin S5. Four of these six strains were pyocin S5 and immunity protein-encoding strains—PA14, PAO1, […] and NCTC 13921. Two cystic fibrosis isolates, 12-35708 and 12-29165 were also completely resistant to pyocin S5, despite the absence of S5, or S5 immunity protein coding genes. […] Turbid inhibition zones were detected when 3 μg and 30 μg of S5 were spotted on the lawn of these strains (Table 1, FIG. 3).

P. aeruginosa A19 = assay: agar disc-diffusion assay; conditions: strain A19; 0.3, 3 and 30 μg of protein spotted on discs on CAA agar lawn, overnight
Experimental: as §1, §2

P. aeruginosa ATCC 29260 = assay: agar disc-diffusion assay; conditions: strain ATCC 29260; 0.3, 3 and 30 μg of protein spotted on discs on CAA agar lawn, overnight
Experimental: as §1, §2

P. aeruginosa BI80 = assay: agar disc-diffusion assay; conditions: strain BI80; 0.3, 3 and 30 μg of protein spotted on discs on CAA agar lawn, overnight
Experimental: as §1, §2

P. aeruginosa BL77 = assay: agar disc-diffusion assay; conditions: strain BL77; 0.3, 3 and 30 μg of protein spotted on discs on CAA agar lawn, overnight
Experimental: as §1, §2

P. aeruginosa BR79 = assay: agar disc-diffusion assay; conditions: strain BR79; 0.3, 3 and 30 μg of protein spotted on discs on CAA agar lawn, overnight
Experimental: as §1, §2

[1] = test system: P. aeruginosa Boston 41501 (ATCC 27853); assay: agar disc-diffusion assay; conditions: strain Boston; 0.3, 3 and 30 μg of protein spotted on discs on CAA agar lawn, overnight
Experimental: as §1, §2

P. aeruginosa Bu002 = assay: agar disc-diffusion assay; conditions: strain Bu002; 0.3, 3 and 30 μg of protein spotted on discs on CAA agar lawn, overnight
Experimental: as §1, §2

P. aeruginosa EY76 = assay: agar disc-diffusion assay; conditions: strain EY76; 0.3, 3 and 30 μg of protein spotted on discs on CAA agar lawn, overnight
Experimental: as §1, §2

P. aeruginosa HP1 = assay: agar disc-diffusion assay; conditions: strain HP1; 0.3, 3 and 30 μg of protein spotted on discs on CAA agar lawn, overnight
Experimental: as §1, §2

P. aeruginosa HP40 = assay: agar disc-diffusion assay; conditions: strain HP40; 0.3, 3 and 30 μg of protein spotted on discs on CAA agar lawn, overnight
Experimental: as §1, §2

P. aeruginosa HP41 = assay: agar disc-diffusion assay; conditions: strain HP41; 0.3, 3 and 30 μg of protein spotted on discs on CAA agar lawn, overnight
Experimental: as §1, §2

P. aeruginosa HP52 = assay: agar disc-diffusion assay; conditions: strain HP52; 0.3, 3 and 30 μg of protein spotted on discs on CAA agar lawn, overnight
Experimental: as §1, §2

P. aeruginosa HP6 = assay: agar disc-diffusion assay; conditions: strain HP6; 0.3, 3 and 30 μg of protein spotted on discs on CAA agar lawn, overnight
Experimental: as §1, §2

P. aeruginosa HP75 = assay: agar disc-diffusion assay; conditions: strain HP75; 0.3, 3 and 30 μg of protein spotted on discs on CAA agar lawn, overnight
Experimental: as §1, §2

P. aeruginosa HP7 = assay: agar disc-diffusion assay; conditions: strain HP7; 0.3, 3 and 30 μg of protein spotted on discs on CAA agar lawn, overnight
Experimental: as §1, §2

P. aeruginosa NCTC 13437 = assay: agar disc-diffusion assay; conditions: strain NCTC 13437; 0.3, 3 and 30 μg of protein spotted on discs on CAA agar lawn, overnight
Experimental: as §1, §2

P. aeruginosa NCTC 13921 = assay: agar disc-diffusion assay; conditions: strain NCTC 13921; 0.3, 3 and 30 μg of protein spotted on discs on CAA agar lawn, overnight
Experimental: as §1, §2

P. aeruginosa PA14 = assay: agar disc-diffusion assay; conditions: strain PA14; 0.3, 3 and 30 μg of protein spotted on discs on CAA agar lawn, overnight
Experimental: as §1, §2

P. aeruginosa PAO1 = assay: agar disc-diffusion assay; conditions: strain PAO1; 0.3, 3 and 30 μg of protein spotted on discs on CAA agar lawn, overnight
Experimental: as §1, §2

P. aeruginosa Pr335 = assay: agar disc-diffusion assay; conditions: strain Pr335; 0.3, 3 and 30 μg of protein spotted on discs on CAA agar lawn, overnight
Experimental: as §1, §2

P. aeruginosa UR78 = assay: agar disc-diffusion assay; conditions: strain UR78; 0.3, 3 and 30 μg of protein spotted on discs on CAA agar lawn, overnight
Experimental: as §1, §2

P. aeruginosa strains = assay: agar disc-diffusion assay, panel of 25 strains; conditions: panel of 25 P. aeruginosa strains, in words
Experimental: as §1, §2

B1: S5-Pflu373: chimeric bacteriocin SEQ ID NO: 13: pyocin S5 first segment fused to P. fluorescens Pflu373 killing domain (protein)
chain: MSNDNEVPGSMVIVAQGPDDQYAYEVPPIDSAAVAGNMFGDLIQREIYLQKNIYYPVRSIFEQGTKEKKEINKKVSDQVDGLLKQITQGKREATRQERVDVMSAVLHKMESDLEGYKKTFTKGPFIDYEKQSSLSIYEAWVKIWEKNSWEERKKYPFQQLVRDELERAVAYYKQDSLSEAVKVLRQELNKQKALKEKEDLSQLERDYRTRKANLEMKVQSELDQAGSALPPLVSPTPEQWLERATRLVTQAIADKKQLQTTNNTLIKNSPTPLEKQKAIYNGELLVDEIASLQARLVKLNAETTRRRTEAEEQAKAEEEIKGAIKFTADFYKEIGEKYGAQMTASATDLAETAKGKTLRSAEEALKAFDQYKDHLDKKFSAADRAAIVNALDSLDRAELAKNLNLFAKGFGYTSKAFDVYDLVEEVKKSYASGDWNNTALKVETLFAGSAATGLIAFAFGVTVSTPVGIVAFALIMALVSAYIDDAHVKQFNDALDAILP
modifications: S5-Pflu373
Activity in agar disc-diffusion assay (P. aeruginosa 13-18499): ** (activity detected with 3 μg of protein) | Activity in agar disc-diffusion assay (P. aeruginosa A19): *** (activity detected with 0.3 μg of protein) | Activity in agar disc-diffusion assay (P. aeruginosa ATCC 29260): *** (activity detected with 0.3 μg of protein) | Activity in agar disc-diffusion assay (P. aeruginosa BI80): *** (activity detected with 0.3 μg of protein) | Activity in agar disc-diffusion assay (P. aeruginosa BL77): ** (activity detected with 3 μg of protein) | Activity in agar disc-diffusion assay (P. aeruginosa BR79): ** (activity detected with 3 μg of protein) | Activity in agar disc-diffusion assay [1]: *** (activity detected with 0.3 μg of protein) | Activity in agar disc-diffusion assay (P. aeruginosa Bu002): *** (activity detected with 0.3 μg of protein) | Activity in agar disc-diffusion assay (P. aeruginosa EY76): *** (activity detected with 0.3 μg of protein) | Activity in agar disc-diffusion assay (P. aeruginosa HP1): *** (activity detected with 0.3 μg of protein) | Activity in agar disc-diffusion assay (P. aeruginosa HP40): *** (activity detected with 0.3 μg of protein) | Activity in agar disc-diffusion assay (P. aeruginosa HP41): *** (activity detected with 0.3 μg of protein) | Activity in agar disc-diffusion assay (P. aeruginosa HP52): ** (activity detected with 3 μg of protein) | Activity in agar disc-diffusion assay (P. aeruginosa HP6): *** (activity detected with 0.3 μg of protein) | Activity in agar disc-diffusion assay (P. aeruginosa HP75): ** (activity detected with 3 μg of protein) | Activity in agar disc-diffusion assay (P. aeruginosa HP7): *** (activity detected with 0.3 μg of protein) | Activity in agar disc-diffusion assay (P. aeruginosa NCTC 13437): * (activity detected only with 30 μg of protein) | Activity in agar disc-diffusion assay (P. aeruginosa NCTC 13921): ** (activity detected with 3 μg of protein) | Activity in agar disc-diffusion assay (P. aeruginosa PA14): ** (activity detected with 3 μg of protein) | Activity in agar disc-diffusion assay (P. aeruginosa PAO1): *** (activity detected with 0.3 μg of protein) | Activity in agar disc-diffusion assay (P. aeruginosa Pr335): *** (activity detected with 0.3 μg of protein) | Activity in agar disc-diffusion assay (P. aeruginosa UR78): *** (activity detected with 0.3 μg of protein) | activity spectrum / profile in agar disc diffusion assay (P. aeruginosa strains): good activity profile, similar to S5-Pflu095

B2: S5-Pflu618: chimeric bacteriocin SEQ ID NO: 21: pyocin S5 first segment fused to P. fluorescens Pflu618 killing domain (protein)
chain: MSNDNEVPGSMVIVAQGPDDQYAYEVPPIDSAAVAGNMFGDLIQREIYLQKNIYYPVRSIFEQGTKEKKEINKKVSDQVDGLLKQITQGKREATRQERVDVMSAVLHKMESDLEGYKKTFTKGPFIDYEKQSSLSIYEAWVKIWEKNSWEERKKYPFQQLVRDELERAVAYYKQDSLSEAVKVLRQELNKQKALKEKEDLSQLERDYRTRKANLEMKVQSELDQAGSALPPLVSPTPEQWLERATRLVTQAIADKKQLQTTNNTLIKNSPTPLEKQKAIYNGELLVDEIASLQARLVKLNAETTRRRTEAEAEAKRIDDYKRAVAFVADANKYILEKYGANLHQVVMDLQKDISGKKIRSYAEAMQTFEAVRTNPNARLSPQDTRAVVDALNALDKATYMDSVNKLAKGFGVTGKIVQAHSVIEKTVIGFRDGNWKPLILELESIALGAGAGAAVATLLAVFSPGFAASAIGIVAVGVAIATIASLLNADNVEKINVFISDHLETALKEQR
modifications: S5-Pflu618
Activity in agar disc-diffusion assay (P. aeruginosa 13-18499): * (activity detected only with 30 μg of protein) | Activity in agar disc-diffusion assay (P. aeruginosa A19): *** (activity detected with 0.3 μg of protein) | Activity in agar disc-diffusion assay (P. aeruginosa ATCC 29260): * (activity detected only with 30 μg of protein) | Activity in agar disc-diffusion assay (P. aeruginosa BI80): * (activity detected only with 30 μg of protein) | Activity in agar disc-diffusion assay (P. aeruginosa BL77): * (activity detected only with 30 μg of protein) | Activity in agar disc-diffusion assay [1]: ** (activity detected with 3 μg of protein) | Activity in agar disc-diffusion assay (P. aeruginosa Bu002): ** (activity detected with 3 μg of protein) | Activity in agar disc-diffusion assay (P. aeruginosa HP1): ** (activity detected with 3 μg of protein) | Activity in agar disc-diffusion assay (P. aeruginosa HP40): ** (activity detected with 3 μg of protein) | Activity in agar disc-diffusion assay (P. aeruginosa HP41): ** (activity detected with 3 μg of protein) | Activity in agar disc-diffusion assay (P. aeruginosa HP52): * (activity detected only with 30 μg of protein) | Activity in agar disc-diffusion assay (P. aeruginosa HP6): * (activity detected only with 30 μg of protein) | Activity in agar disc-diffusion assay (P. aeruginosa HP7): ** (activity detected with 3 μg of protein) | Activity in agar disc-diffusion assay (P. aeruginosa NCTC 13921): * (activity detected only with 30 μg of protein) | Activity in agar disc-diffusion assay (P. aeruginosa PAO1): ** (activity detected with 3 μg of protein) | Activity in agar disc-diffusion assay (P. aeruginosa Pr335): ** (activity detected with 3 μg of protein) | Activity in agar disc-diffusion assay (P. aeruginosa UR78): * (activity detected only with 30 μg of protein) | activity spectrum / profile in agar disc diffusion assay (P. aeruginosa strains): weaker and less broad activity in comparison to pyocin S5
